# Assay: soluble on expression in E. coli; label from the status in PepcDB or PDB records
row,Sequence,soluble on expression in E. coli
1,MSLTTRIGFLLFPGFPMACLTSIIEPLRAANEISMSDSFAWRLVSELPRKVVSSAGITFEPDASLETVSALDYLVLLSAPVARFENPRTASLLRRIERHGTVLGAISGGVFPLVRSGVVRDERLSVHWCYEAAFAAEFPEIQRSNEVIEISPRLLTASGAAAAFDLALSLIEAALGANVANEVACWFQHPIMRKAGVKQALPIHQAADAEGEMSPLVARAIEIFAENLTTPASIAAIAERLHITPRHLERCFKQATGQNPTGYFRHLRMQAARQIVMYTNDSIAEVATAVGYANAKPLVRHYRDTFGLTPQQDRKRINLYRVEGNEGHHHHHH,not soluble
2,MSLTVRQLASLTRGAVRTLATDGAVAVLPIGAVEQHGDHLPLGTDFLLVEAVCDRAMQQLEDDRTTWVRVPTMTFGHSPHHLFAAAVSLQAGTLTDVLADVLDSLAQTGFRRIVIVNGHGGNDELVRLAVKAHSLHAEGTAAACSYWTLTAQTTAEAAATERPDRTPGHAGWFETSLMLAVHPELVADDRPFTPSDPPPLFNRSPAPGLTVERHGEWPRVGGTTDDAREASAETGRLLLGRRVAGLVAALQSLDRATATPPAASVPSTDRERGPQAEGHHHHHH,not soluble
3,MSLVDTAKVLILDDQAVSRSILSKIVRNLGRGIKTCEFSSPTEALLWAQDNTADLLLVDYEMPGMNGLCFINEITRLPQYQTVPTIMITIKQDVEIRYAALDAGVTDFLTKPVDMHECMARCKNLITLRQQRLTLEDEGHHHHHH,soluble
4,MSLVEAISLWNEGVLAADKKDWKGALDAFSAVQDPHSRICFNIGCMYTILKNMTEAEKAFTRSINRDKHLAVAYFQRGMLYYQTEKYDLAIKDLKEALIQLRGNQLIDYKILGLQFKLFACEVLYNIAFMYAKKEEWKKAEEQLALATSMKSEPRHSKIDKAMECVWKQKLYEPVVIPVGKLFRPNERQVAQLAKKDYLGKATVVASVVDQDSFSGFAPLQPQAAEPPPRPKTPEIFRALEGEAHRVLFGFVPETKEELQVMPGNIVFVLKKGNDNWATVMFNGQKGLVPCNYLEPVELRIHPQQQPQEESSPQSDIPAPPSSKAPGRPQLSPGQKQKEEPKEVKLSVPMPYTLKVHYKYTVVMKTQPGLPYSQVRDMVSKKLELRLEHTKLSYRPRDSNELVPLSEDSMKDAWGQVKNYCLTLWCENTVGDQGFPDEPKESEKADANNQTTEPQLKKGSQVEALFSYEATQPEDLEFQEGDIILVLSKVNEEWLEGECKGKVGIFPKVFVEDCATTDLESTRREV,soluble
5,MSLVERVILIVLDSVGAGEMPDADKYGDKGSDTIGNISKAVGGLKLPDMVKMGLGNISGIKGVDKVQYPIGAFGKLKEMSKGKDTVTGHWEMSGVILEEPLNTYPNGFPKDIIDEFEKKIGRKVIGNKVASGTEIIKELGDEHIKTGCPIVYTSADSVFQVAAHEEIIPLDELYKICKVAREMLVDDRTVGRVIARPFVGKNSNYTRTSNRRDFALDPFNKTMLEYIKENKSNVMCVGKIEDIFNKKGVTEAVHIKNNMDGVDKTLEYMKTDKKGLIFTNLVDFDMLYGHRNDPKGYAKALEEFDGRINEIKTNMKDYDVLMITADHGCDPTTESTDHSREYIPFIAYGKDIKGGADIKIRDSFSDIGKTILDLLQVENNLVGKSFKDIIMKEGHHHHHH,not soluble
6,MSLVEVYLNSSSMIPIDRYYEYDIYDLVIEAYKNFEGEYDVNSIDLIVVANAYSQKLNNASLIAPKIAEKIGKPNVPSIKVDNADASGGAALLTAYSLIKSNMVNSVLIVGVEKQSDYPSKYLYDAISTNLDDYMFYNGISSHSVAALLMRQYMKRYGVDRNYFANWAIKMHKNATENPFAYLRFQVDLNTVINSQIISDPVRLFDVGARADGAAILLLSNNKTESAVKINKILSAQARYDFSPSLPSVRMLRDKLELKFSERTGIDIHDSYSIMAALMLEEAGIFESGKSLHNLDSVNVNLGGGLKARGHVGGASAIYQLAEAHMQLIGSFKGKKASVDNYIVISSDDLGMVSYGINLSREGHHHHHH,not soluble
7,MSLVGDVYLGVGSASSEYWAAYIEGAKAVASSLGKDVNVIPSEFDGQKLLEQFGAVFAAGCEDCVVTVDPASNAFTKAMIERADTAGAKYVNLWNRPDEIHPWDTVPNTWIANISFDGVDSGYQNGMALCNALGGKGNIVALNGIPDNPPAKQRIAGLHKALQECPGLKLLDTQVGNWDQTQGQSITRAWLAKYGDELNGIFSANDGMALGAVAALREKGLVGKILVTGSDGSSDVIKLIEKGEMLSTMHIDGYVQGAYAVALAAAAVKGDIKMDELKQDQRDFFLSQTLVTKDNAASVLNSKEGHHHHHH,not soluble
8,MSLVINAPFKVIASKVTAEVLKSVNSKLGSYSTNYATSSEARATNVAVATRSIDGKVVMPGETFSFNEVVGERTRARGYKEAGVIVNQKLESGFGGGVCQVSSTLYNALLRSNIKMTERVHHTFPSSYVPTGLDATVDWGNIDLKFKNTFKYPIYIQGYTGGREVGFNIYSNSELAREGHHHHHH,not soluble
9,MSLVKKGAALLMVATMALSSAACSNSKTEGKPEVQAKVAPVEKNGDKTVIRFWHAMGGKTQGVLDGLVADYNKSQNKYEIKAEFQGTYEESLTKFRTMSATKEAPALVQSSEITTKYMIDSKKITPIDSWIKKDKYDTSKLEKAITNYYSVDGKMYSMPFNSSTPVLIYNKDAFAKAGLDPEKAPKTYAELQEAAKKLTIKEGGNVKQYGFSMLNYGWFFEELLATQGALYVDNENGRKDAAKKAVFNGKEGQKVFGMLDDLNKAGALGKYGASWDDIRAAFQSGQVAMYLDSSAGVRDLIDASKFNVGVSYIPYPEDSKQNGVVIGGASLWMTNMVSEETQQGAWDFMKYLTKPDVQAKWHTATGYFSINPDAYNEPLVKEQYEKYPQLKVTVDQLQATKQSPATQGALISVFPESRDAVVKALEAMYDGKNSKEALDEAAKATDRAISISARTSQK,not soluble
10,MSLVLNFVGTGTLTRFFLECLKDRYEIGYILSRSIDRARNLAEVYGGKAATLEKHPELNGVVFVIVPDRYIKTVANHLNLGDAVLVHCSGFLSSEIFKKSGRASIHPNFSFSSLEKALEMKDQIVFGLEGDERGLPIVKKIAEEISGKYFVIPSEKKKAYHLAAVIASNFPVALAYLSKRIYTLLGLDEPELLIHTLMKGVADNIKKMRVECSLTGPVKRGDWQVVEEERREYEKIFGNTVLYDEIVKLLREVAESERREAQEDEREGGSHHHHHH,soluble
11,MSLVLSAGRLNKNSLGIAVLLCTGLLLAGCSSNSGSGTYSGSVYTVKRGDTLYRISRATGTSVKELARLNGISPPYTIEVGQRIKVRGSAKSSTSTRKTSNKTATKTAAVRPSSSVPKSSWPPVGQRCWVWPANGKVILPYSTAEGGNKGIDIAGARGTPVYAAGAGKVVYVGNQLRGYGNLIMIKHNEDYITAYAHNDTMLVNNGQSVKAGQKIATMGSTDAASVRLHFQIRYRATAIDPLRYLPPQGSKPKCEGHHHHHH,not soluble
12,MSLVVEHNPFAKRYRKGMKRIALVYPNRYVGGITNLGLQYIYARINESDAICERFYADVFDGLRSIESATPLSEFDVALFSLQYETDYFKAVEILKRSGFKGLKIAGGPCVMENPQPLMDYFHAFFIGEVEGYVEELIHAKNAEELSGIPGVFTGREEKVKRVYAKLDRHIEKEIIGEGAYGRCFLLEIGRGCVRRCRFCIVRQIYFPPRWRKKEMLPEIGEEKVAIIAPSPSDHPQFKEILQHYVEQGKEVSPSSVRADTLDEELADLLKKAGVKTLTIAPETASDKLQEVINKGIGDEEVMRAAELASTRFEKVKLYYMVGLPGESFEDVKAILEQALRVKKLVGKVEISVNPLVPKPHTPLQWMGFGGEEELREGISHLKKKLEYLRREARRAGIGADVSGFKEFAIQTILSRGDREVAEMLEGASYRKFEKYLKPINPDSPLPWDFIDHGYRKSTLLKEYDKIKKILEGHHHHHH,not soluble
13,MSLVWLAELPDEILENLYPGEDVLYSVKKKLYTELKPKYLIVTDRRIIYLDQKILGRYDLIDIPYEKLEFVHFKKGKIGAKFIIRNEEGEEIVLTWMEKDEAEKAIEAIRDAINAIAVEPVSIQKRKGILGFELELSKPKEFITRTYPQAVAKAAPKEDPIERIRKLKELYESGVISREEFEEKKRKLLDQIEGHHHHHH,soluble
14,MSLWQPLVLVLLVLGCCFAAPRQRQSTLVLFPGDLRTNLTDRQLAEEYLYRYGYTRVAEMRGESKSLGPALLLLQKQLSLPETGELDSATLKAMRTPRCGVPDLGRFQTFEGDLKWHHHNITYWIQNYSEDLPRAVIDDAFARAFALWSAVTPLTFTRVYSRDADIVIQFGVAEHGDGYPFDGKDGLLAHAFPPGPGIQGDAHFDDDELWSLGKGVVVPTRFGNADGAACHFPFIFEGRSYSACTTDGRSDGLPWCSTTANYDTDDRFGFCPSERLYTRDGNADGKPCQFPFIFQGQSYSACTTDGRSDGYRWCATTANYDRDKLFGFCPTRADSTVMGGNSAGELCVFPFTFLGKEYSTCTSEGRGDGRLWCATTSNFDSDKKWGFCPDQGYSLFLVAAHEFGHALGLDHSSVPEALMYPMYRFTEGPPLHKDDVNGIRHLYGPRPEPEPRPPTTTTPQPTAPPTVCPTGPPTVHPSERPTAGPTGPPSAGPTGPPTAGPSTATTVPLSPVDDACNVNIFDAIAEIGNQLYLFKDGKYWRFSEGRGSRPQGPFLIADKWPALPRKLDSVFEEPLSKKLFFFSGRQVWVYTGASVLGPRRLDKLGLGADVAQVTGALRSGRGKMLLFSGRRLWRFDVKAQMVDPRSASEVDRMFPGVPLDTHDVFQYREKAYFCQDRFYWRVSSRSELNQVDQVGYVTYDILQCPED,soluble
15,MSLYPDDSLTLHTDLYQINMMQVYFDQGIHNKKAVFEVYFRQQPFKNGYAVFAGLERIVNYLEDLRFSDSDIAYLESLGYHGAFLDYLRNFKLELTVRSAQEGDLVFANEPIVQVEGPLAQCQLVETALLNIVNYQTLVATKAARIRSVIEDEPLMEFGTRRAQEMDAAIWGTRAAVIGGANGTSNVRAGKLFDIPVLGTHAHALVQVYGNDYEAFKAYAATHKNCVFLVDTYDTLRIGVPAAIQVARELGDQINFMGVRIDSGDIAYISKKVRQQLDEAGFTEAKIYASNDLDENTILNLKMQKAKIDVWGVGTKLITAYDQPALGAVYKIVAIEDETGQMRNTIKLSNNAEKVSTPGKKQVWRITSREKGKSEGDYITYDGVDISYMTEIKMFHPTYTYIKKTVRNFDAVPLLVDIFKEGILVYNLPSLTDIQDYARKEFDKLWDEYKRVLNPQHYPVDLARDVWQDKMDLIDKMRKEALGEGEEEEGHHHHHH,soluble
16,MSLYVPGKQVTLAHIIASPNKEIYTKLGLPEGTSNALGILTITPSEAAIIAVDIATKSGDIQIGFIDRFSGSVVISGDVSSVEAALQAVIEGLQQILNFSVTCKEGHHHHHH,not soluble
17,MSLYVVISPTGRTDGNIPARGYAGPSGRLDVIARAYNAILEPNATLAALLMGGPLPPRLLIAPLSCKDIVRSERSFMIEASRALRGRRSCFTVNDEGVEALASLLRRFKPRILLAEKGGDISSHWGEMCSSSPTFIAGSHLDPPHGLIKHLERSLGGFLRVSVGPLSLHTDHVFLLVSALRLPMHATSIEHH,not soluble
18,MSLYYINLKQERILKFIEKFGVARIEHMKRILNIKDIDNQFKILIRQRKVKLVFNDICVLDGKKELNIKMIKALDLYSYLHLNNGGIPIEWCMPQDFPFTIAFFRNSKVFDVAIINEGEETIYSSAINRGVSERVIVVLSEENQKENIKINKQIKCCTIEDGVLNFEGHHHHHH,not soluble
19,MSMDISDFYQTFFDEADELLADMEQHLLDLVPESPDAEQLNAIFRAAHSIKGGAGTFGFTILQETTHLMENLLDEARRGEMQLNTDIINLFLETKDIMQEQLDAYKNSEEPDAASFEYICNALRQLALEAKGETTPAVRSHHHHHH,soluble
20,MSMEDPFFVVKGEVQKAVNTAQGLFQRWTELLQGPSAATREEIDWTTNELRNNLRSIEWDLEDLDETISIVEANPRKFNLDATELSIRKAFITSTRQIVRDMKDQMSASS,soluble
